Data from paper PMC2808332, “Expanding the Substantial Interactome of NEMO Using Protein Microarrays” (PLoS ONE, 2010).

B1: Chromosome 9 open reading frame 32 (natural protein, human, UniProt Q9BV86 1-223, looked up)
chain: MTSEVIEDEKQFYSKAKTYWKQIPPTVDGMLGGYGHISSIDINSSRKFLQRFLREGPNKTGTSCALDCGAGIGRITKRLLLPLFREVDMVDITEDFLVQAKTYLGEEGKRVRNYFCCGLQDFTPEPDSYDVIWIQWVIGHLTDQHLAEFLRRCKGSLRPNGIIVIKDNMAQEGVILDDVDSSVCRDLDVVRRIICSAGLSLLAEERQENLPDEIYHVYSFALR
notes: Chromosome 9 open reading frame 32, human; also called C9ORF32; source: insect cell/baculovirus, purified, spotted (Invitrogen Protoarray v4.0)
B2: Odontogenic, ameloblast associated (natural protein, human, UniProt A1E959 16-279, looked up)
chain: APLIPQRLMSASNSNELLLNLNNGQLLPLQLQGPLNSWIPPFSGILQQQQQAQIPGLSQFSLSALDQFAGLLPNQIPLTGEASFAQGAQAGQVDPLQLQTPPQTQPGPSHVMPYVFSFKMPQEQGQMFQYYPVYMVLPWEQPQQTVPRSPQQTRQQQYEEQIPFYAQFGYIPQLAEPAISGGQQQLAFDPQLGTAPEIAVMSTGEEIPYLQKEAINFRHDSAGVFMPSTSPKPSTTNVFTSAVDQTITPELPEEKDKTDSLREP
notes: Odontogenic, ameloblast associated, human; also called ODAM; source: insect cell/baculovirus, purified, spotted (Invitrogen Protoarray v4.0)
B3: CUE domain containing 1 (natural protein, human, UniProt Q9NWM3 1-386, looked up)
chain: MTSLFRRSSSGSGGGGTAGARGGGGGTAAPQELNNSRPARQVRRLEFNQAMDDFKTMFPNMDYDIIECVLRANSGAVDATIDQLLQMNLEGGGSSGGVYEDSSDSEDSIPPEILERTLEPDSSDEEPPPVYSPPAYHMHVFDRPYPLAPPTPPPRIDALGSGAPTSQRRYRNWNPPLLGNLPDDFLRILPQQLDSIQGNAGGPKPGSGEGCPPAMAGPGPGDQESRWKQYLEDERIALFLQNEEFMKELQRNRDFLLALERDRLKYESQKSKSSSVAVGNDFGFSSPVPGTGDANPAVSEDALFRDKLKHMGKSTRRKLFELARAFSEKTKMRKSKRKHLLKHQSLGAAASTANLLDDVEGHACDEDFRGRRQEAPKVEEGLREGQ
notes: CUE domain containing 1, human; also called CUEDC1; source: insect cell/baculovirus, purified, spotted (Invitrogen Protoarray v4.0)
B4: Arginine vasopressin-induced 1 (natural protein, human, UniProt Q5T686 1-147, looked up)
chain: MGTPASVVSEPPPWQAPIEARGRKQASANIFQDAELLQIQALFQRSGDQLAEERAQIIWECAGDHRVAEALKRLRRKRPPRQKPLGHSLHHCSRLRILEPHSALANPQSATETASSEQYLHSRKKSARIRRNWRKSGPTSYLHQIRH
notes: Arginine vasopressin-induced 1, human; also called AVPI1; source: insect cell/baculovirus, purified, spotted (Invitrogen Protoarray v4.0)
B5: G protein, γ-transducing activity polypeptide 1 (natural protein, human, UniProt P63211 1-74, looked up)
chain: MPVINIEDLTEKDKLKMEVDQLKKEVTLERMLVSKCCEEVRDYVEERSGEDPLVKGIPEDKNPFKELKGGCVIS
notes: G protein, γ-transducing activity polypeptide 1, human; also called GNGT1; source: insect cell/baculovirus, purified, spotted (Invitrogen Protoarray v4.0)
B6: Myosin light chain 5, regulatory (natural protein, human, UniProt Q02045-1 1-173, looked up)
chain: MASRKTKKKEGGALRAQRASSNVFSNFEQTQIQEFKEAFTLMDQNRDGFIDKEDLKDTYASLGKTNVKDDELDAMLKEASGPINFTMFLNLFGEKLSGTDAEETILNAFKMLDPDGKGKINKEYIKRLLMSQADKMTAEEVDQMFQFASIDVAGNLDYKALSYVITHGEEKEE
notes: Myosin light chain 5, regulatory, human; also called MYL5; source: insect cell/baculovirus, purified, spotted (Invitrogen Protoarray v4.0)
B7: PIM2 (printed gene product: Pediatric index of mortality 2) (natural protein)
chain: not shown
notes: source: insect cell/baculovirus, purified, spotted (Invitrogen Protoarray v4.0)
B8: AMME chromosomal region gene 1-like (natural protein, human, UniProt Q6DCA0 1-310, looked up)
chain: MGKRRCVPPLEPKLAAGCCGVKKPKLSGSGTHSHGNQSTTVPGSSSGPLQNHQHVDSSSGRENVSDLTLGPGNSPITRMNPASGALSPLPRPNGTANTTKNLVVTAEMCCYCFDVLYCHLYGFPQPRLPRFTNDPYPLFVTWKTGRDKRLRGCIGTFSAMNLHSGLREYTLTSALKDSRFPPLTREELPKLFCSVSLLTNFEDASDYLDWEVGVHGIRIEFINEKGVKRTATYLPEVAKEQDWDQIQTIDSLLRKGGFKAPITSEFRKTIKLTRYRSEKVTISYAEYIASRQHCFQNGTLHAPPLYNHYS
notes: AMME chromosomal region gene 1-like, human; also called AMMECR1L; source: insect cell/baculovirus, purified, spotted (Invitrogen Protoarray v4.0)
B9: Centrin EF-hand protein 3 (natural protein, human, UniProt O15182 1-167, looked up)
chain: MSLALRSELVVDKTKRKKRRELSEEQKQEIKDAFELFDTDKDEAIDYHELKVAMRALGFDVKKADVLKILKDYDREATGKITFEDFNEVVTDWILERDPHEEILKAFKLFDDDDSGKISLRNLRRVARELGENMSDEELRAMIEEFDKDGDGEINQEEFIAIMTGDI
notes: Centrin EF-hand protein 3, human; also called CETN3; source: insect cell/baculovirus, purified, spotted (Invitrogen Protoarray v4.0)
B10: NOTCH-regulated ankyrin repeat protein (natural protein, human, UniProt Q7Z6K4 1-114, looked up)
chain: MSQAELSTCSAPQTQRIFQEAVRKGNTQELQSLLQNMTNCEFNVNSFGPEGQTALHQSVIDGNLELVKLLVKFGADIRLANRDGWSALHIAAFGGHQDIVLYLITKAKYAASGR
notes: NOTCH-regulated ankyrin repeat protein, human; also called NRARP; source: insect cell/baculovirus, purified, spotted (Invitrogen Protoarray v4.0)
B11: Acyl-Coenzyme A binding domain containing 6 (natural protein, human, UniProt Q9BR61 1-282, looked up)
chain: MASSFLPAGAITGDSGGELSSGDDSGEVEFPHSPEIEETSCLAELFEKAAAHLQGLIQVASREQLLYLYARYKQVKVGNCNTPKPSFFDFEGKQKWEAWKALGDSSPSQAMQEYIAVVKKLDPGWNPQIPEKKGKEANTGFGGPVISSLYHEETIREEDKNIFDYCRENNIDHITKAIKSKNVDVNVKDEEGRALLHWACDRGHKELVTVLLQHRADINCQDNEGQTALHYASACEFLDIVELLLQSGADPTLRDQDGCLPEEVTGCKTVSLVLQRHTTGKA
notes: also called ACBD6; source: insect cell/baculovirus, purified, spotted (Invitrogen Protoarray v4.0)

molecular target: T1, NEMO (NF-κB essential modulator), tag-free, biotinylated (human, UniProt Q9Y6K9 1-419, biotin (in vitro biotinylation kit, biotin:NEMO molar ratio 9:1)); experiment: peptide or protein array; Invitrogen Protoarray v4.0, about 8,400 human proteins spotted on nitrocellulose-coated glass slides; 10 µg biotinylated tag-free NEMO in 120 µl probing buffer (PBS, 0.5 mM DTT, 5 mM MgCl2, 5% glycerol, 0.05% Triton X-100), 4°C, 1.5 h; bound NEMO detected with labelled streptavidin; hits Z-score > 3, hits of the biotin-GST control array subtracted; settings: both partners purified
T1 construct: NEMO, NF-κB essential modulator, human, 48 kDa; also called biotinylated NEMO; biotin-NEMO; source: E. coli BL21(DE3), purified (glutathione sepharose), GST removed with thrombin, biotinylated in vitro

| Binder | binding result |
| --- | --- |
| B1 | binds |
| B2 | binds |
| B3 | binds |
| B4 | binds |
| B5 | binds |
| B6 | binds |
| B7 | binds |
| B8 | binds |
| B9 | binds |
| B10 | binds |
| B11 | binds |
